Assay results as given in patent publication CN117567617A.

Target: 人CLDN18.2 (human claudin18.2) (human) (UniProt P56856)
Assay: cell-based or functional assay

B1: 全人源抗CLDN18.2抗体2A2 (CLDN-BC-2A2-hH1) (antibody, V domains shown)
VH: QVQLQQWGPGLVKPSQTLSLTCTVSGGSISSVGYYWSWIRQHPGQGLEWVGYIYYSGGTYYNPSLKSRVTISLDTSKNQFSLKLTSVTAADTAVYYCASYGSVSPYYYYYGMDVWGQGTTVTVSS
VL: DIVMTQSPSSVSASVGDRVTITCRASQGISSWLAWYQQKPGKAPNLLISAASSLQSGVPSRFSGNGSGTDFTLTISSLQPEDFASYYCQQANSFPITFGQGTRLEIK
- CDC活性 EC50 (Presto Blue, complement): 10.9 µg/mL
